According to PMC12305020:

Biological target: Tom20 (Chaetomium thermophilum) (Chaetomium thermophilum)
Experiment: cryo-EM structure; TOM complex purified by Tom22-FLAG in GDN, with or without pALDH (maps showed no differences); core 2.7 Å and holo 3.2 Å (pALDH-incubated), core 3.2 Å and holo 3.8 Å (preprotein-free), C2 symmetry imposed

Tom20 (Chaetomium thermophilum) (receptor)
stoichiometry N: 2
